The values below come from the supplement of paper PMC10567573.

B1: VAMP4 (parent)
chain: FLRGPSGPRFGPRNDKIKHVQNQV
B2: MCOLN1 (parent)
chain: EEEDLRRRLKYFFMSPCDKFRAKG
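Note: lentivirally expressed fusions sorted by FACS into six bins by GFP to DsRed ratio, PSI derived from sequencing read proportions per bin multiplied by bin number.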

Variants of B1 are the subject of one series. Put plainly: protein stability index of a GFP-peptide fusion (GPS, HEK-293T) (PSI 1-6); higher = more stable. To be noted: c terminus: a fixed tail appended.
Consider FLRGRSGPRFGPRNDKIKHVQNQV [P5R], for which the protein stability index is 2.72.

For the variant FLRGHSGPRFGPRNDKIKHVQNQV [P5H], the protein stability index was found to be 3.3.

As for FLRGCSGPRFGPRNDKIKHVQNQV [P5C], the protein stability index turned out to be 2.48.

On to FLRGTSGPRFGPRNDKIKHVQNQV [P5T], for which the protein stability index was 2.86.

As to FLRGVSGPRFGPRNDKIKHVQNQV [P5V], the protein stability index was found to be 2.29.

In the case of FLRGLSGPRFGPRNDKIKHVQNQV [P5L], the protein stability index is 2.59.

FLRGNSGPRFGPRNDKIKHVQNQV [P5N]: the protein stability index was found to be 2.94.

With FLRGWSGPRFGPRNDKIKHVQNQV [P5W], the protein stability index came to 1.55.

For FLRGISGPRFGPRNDKIKHVQNQV [P5I], the protein stability index stood at 2.17.

In the next series the parent is B2. Described as above. To be noted: c terminus: a fixed tail appended.
Consider EEEDLRRRLKYFFMSPCDKFRAQG [K23Q], for which the protein stability index came out at 2.59.

On to EEEDLRRRLKYFFMSPCDKFRALG [K23L], for which the protein stability index turned out to be 1.86.

EEEDLRRRLKYFFMSPCDKFRATG [K23T]: the protein stability index stood at 2.31.

With EEEDLRRRLKYFFMSPCDKFRACG [K23C], the protein stability index turned out to be 2.43.

As to EEMDLRRRLKYFFMSPCDKFRAKG [E3M], the protein stability index is 1.15.

Regarding EENDLRRRLKYFFMSPCDKFRAKG [E3N], the protein stability index came out at 1.91.

With EEPDLRRRLKYFFMSPCDKFRAKG [E3P], the protein stability index is 2.25.

For the variant EEQDLRRRLKYFFMSPCDKFRAKG [E3Q], the protein stability index worked out at 1.5.

As to EEEDLRRRLKYFFMSPCDKFEAKG [R21E], the protein stability index came out at 3.45.

On to EEEDLRRRLKYFFMSPCDKFDAKG [R21D], for which the protein stability index worked out at 3.15.

EEEDLRRRLKYFFMSPCDKFWAKG [R21W]: the protein stability index came out at 1.81.

With EDEDLRRRLKYFFMSPCDKFRAKG [E2D], the protein stability index worked out at 1.92.

EAEDLRRRLKYFFMSPCDKFRAKG [E2A]: the protein stability index turned out to be 2.37.

EPEDLRRRLKYFFMSPCDKFRAKG [E2P]: the protein stability index came out at 2.23.

As for EIEDLRRRLKYFFMSPCDKFRAKG [E2I], the protein stability index was determined as 2.21.

As to EMEDLRRRLKYFFMSPCDKFRAKG [E2M], the protein stability index was 2.58.

With EYEDLRRRLKYFFMSPCDKFRAKG [E2Y], the protein stability index came out at 1.94.

As for EEEDLYRRLKYFFMSPCDKFRAKG [R6Y], the protein stability index came out at 1.64.

On to EEEDLRRMLKYFFMSPCDKFRAKG [R8M], for which the protein stability index came out at 2.05.

In the case of EEEDLRRTLKYFFMSPCDKFRAKG [R8T], the protein stability index was 2.42.

Turning to EEEDLRRPLKYFFMSPCDKFRAKG [R8P], the protein stability index is 3.23.

Consider EEEDLRRLLKYFFMSPCDKFRAKG [R8L], for which the protein stability index amounted to 2.1.

Turning to EEEDLRRQLKYFFMSPCDKFRAKG [R8Q], the protein stability index was 3.

Take EEEDMRRRLKYFFMSPCDKFRAKG [L5M]: the protein stability index was 2.32.

For EEEDQRRRLKYFFMSPCDKFRAKG [L5Q], the protein stability index is 3.84.

EEEDLRRRLKYFFMSPCDMFRAKG [K19M]: the protein stability index is 2.27.

For EEEDLRRRLKYFFMSPCDCFRAKG [K19C], the protein stability index came out at 2.33.

Turning to EEEDLRRRLKYFFMSPCDLFRAKG [K19L], the protein stability index was determined as 2.14.

For the variant EEEDLRRRLKYFFMSPCDQFRAKG [K19Q], the protein stability index came to 2.73.

As to EEEDLRRRLKYFFMSPCDGFRAKG [K19G], the protein stability index was 2.37.

As for EEEDLRRRLKYFFMSPCDPFRAKG [K19P], the protein stability index was determined as 2.66.

Consider EEEDLRRRLKYFFMSPSDKFRAKG [C17S], for which the protein stability index was found to be 2.54.

As to EEEDLRRRLKYFFMSPTDKFRAKG [C17T], the protein stability index was 2.19.

EEEDLRRRLKYFFMSPWDKFRAKG [C17W]: the protein stability index was 2.13.

Turning to EEEDLRRRLKQFFMSPCDKFRAKG [Y11Q], the protein stability index came to 3.25.

As for EEEDLRRRLKKFFMSPCDKFRAKG [Y11K], the protein stability index amounted to 2.65.

On to EEEDLRRRLKNFFMSPCDKFRAKG [Y11N], for which the protein stability index worked out at 3.23.

EEEDLRRRLKCFFMSPCDKFRAKG [Y11C]: the protein stability index came out at 2.77.

On to EEEDLRRRLKYFFMKPCDKFRAKG [S15K], for which the protein stability index is 2.63.

Consider EEEDLRRRLKYFFMEPCDKFRAKG [S15E], for which the protein stability index was found to be 3.26.

As to EEEDLRRRLKYFFMSPCDKRRAKG [F20R], the protein stability index was found to be 3.04.

As for EEEDLRRRLKYFFMSPCDKCRAKG [F20C], the protein stability index was 2.9.

EEEDLRRRLKYFFMSPCDKDRAKG [F20D]: the protein stability index was 3.79.

In the case of EEEDLRRRLKYFFMSPCDKGRAKG [F20G], the protein stability index is 3.04.

For the variant REEDLRRRLKYFFMSPCDKFRAKG [E1R], the protein stability index was determined as 1.36.

As to FEEDLRRRLKYFFMSPCDKFRAKG [E1F], the protein stability index was determined as 2.29.

Take LEEDLRRRLKYFFMSPCDKFRAKG [E1L]: the protein stability index is 2.16.

With DEEDLRRRLKYFFMSPCDKFRAKG [E1D], the protein stability index came out at 2.96.

As for CEEDLRRRLKYFFMSPCDKFRAKG [E1C], the protein stability index is 3.42.

With VEEDLRRRLKYFFMSPCDKFRAKG [E1V], the protein stability index amounted to 1.51.

Take QEEDLRRRLKYFFMSPCDKFRAKG [E1Q]: the protein stability index worked out at 1.62.

On to EEEDLRFRLKYFFMSPCDKFRAKG [R7F], for which the protein stability index came to 2.44.

Consider EEEDLRERLKYFFMSPCDKFRAKG [R7E], for which the protein stability index came to 3.33.

On to EEEDLRMRLKYFFMSPCDKFRAKG [R7M], for which the protein stability index was found to be 1.55.

EEEDLRYRLKYFFMSPCDKFRAKG [R7Y]: the protein stability index worked out at 2.65.

For EEEDLRLRLKYFFMSPCDKFRAKG [R7L], the protein stability index turned out to be 2.29.

On to EEEDLRRRLDYFFMSPCDKFRAKG [K10D], for which the protein stability index came out at 3.41.

On to EEEDLRRRLRYFFMSPCDKFRAKG [K10R], for which the protein stability index amounted to 2.33.

For the variant EEEDLRRRLKYFFMSECDKFRAKG [P16E], the protein stability index is 1.87.

Regarding EEEDLRRRLKYFFMSNCDKFRAKG [P16N], the protein stability index was found to be 2.11.

In the case of EEEDLRRRLKYFFMSYCDKFRAKG [P16Y], the protein stability index amounted to 2.39.

Turning to EEEDLRRRLKYFFMSQCDKFRAKG [P16Q], the protein stability index was 1.84.

As for EEEDLRRRLKYFFMSACDKFRAKG [P16A], the protein stability index is 2.12.

Regarding EEEDLRRRLKYFFMSLCDKFRAKG [P16L], the protein stability index came to 1.7.

For EEEDLRRRLKYFFMSPCDKFRMKG [A22M], the protein stability index stood at 2.13.

As for EEEDLRRRLKYFFMSPCSKFRAKG [D18S], the protein stability index is 2.18.

For the variant EEEDLRRRLKYFFMSPCQKFRAKG [D18Q], the protein stability index came out at 2.2.

Consider EEEDLRRRLKYFFMSPCYKFRAKG [D18Y], for which the protein stability index was found to be 2.67.

Take EEEDLRRRLKYFFMSPCVKFRAKG [D18V]: the protein stability index was determined as 2.44.

For EEEDLRRRLKYFFMSPCLKFRAKG [D18L], the protein stability index worked out at 2.32.

On to EEEDLRRRLKYFFMSPCKKFRAKG [D18K], for which the protein stability index is 1.94.

Regarding EEEDLRRRLKYAFMSPCDKFRAKG [F12A], the protein stability index was determined as 3.53.

With EEEDLRRRLKYQFMSPCDKFRAKG [F12Q], the protein stability index came out at 3.53.

On to EEEDLRRRLKYKFMSPCDKFRAKG [F12K], for which the protein stability index amounted to 2.98.

Take EEEDLRRRLKYFCMSPCDKFRAKG [F13C]: the protein stability index stood at 3.8.

For the variant EEEDLRRRLKYFQMSPCDKFRAKG [F13Q], the protein stability index came to 3.65.

Take EEEDLRRRLKYFKMSPCDKFRAKG [F13K]: the protein stability index came to 3.23.

With EEELLRRRLKYFFMSPCDKFRAKG [D4L], the protein stability index amounted to 2.13.

Turning to EEEILRRRLKYFFMSPCDKFRAKG [D4I], the protein stability index was found to be 1.71.

As for EEEHLRRRLKYFFMSPCDKFRAKG [D4H], the protein stability index was determined as 2.04.

With EEERLRRRLKYFFMSPCDKFRAKG [D4R], the protein stability index stood at 2.23.

For the variant EEEPLRRRLKYFFMSPCDKFRAKG [D4P], the protein stability index stood at 2.94.

Turning to EEEDLRRRLKYFFRSPCDKFRAKG [M14R], the protein stability index stood at 2.73.

As for EEEDLRRRLKYFFPSPCDKFRAKG [M14P], the protein stability index came out at 3.16.

For the variant EEEDLRRRLKYFFNSPCDKFRAKG [M14N], the protein stability index worked out at 3.3.
